Measurements from patent US20170102393A1.

Legend:
[1] = biological target: integrin β7 (β7 receptor) on cynomolgus monkey peripheral-blood T cells / lymphocytes (cynomolgus monkey (Macaca fascicularis)); assay: cell-based or functional assay
[2] = biological target: α4β7 integrin (Homo sapiens (Human)) (UniProt P13612); assay: blocking of α4β7 interactions with MadCAM-1, VCAM-1 and fibronectin (range told for the three ligands); assay not described
[3] = biological target: integrin β7 (β7 receptor) on cynomolgus monkey peripheral-blood T cells / lymphocytes (cynomolgus monkey (Macaca fascicularis)); assay: β7 receptor occupancy by flow cytometry against serum concentration, dosed cynomolgus monkeys
[4] = biological target: αEβ7 integrin (Homo sapiens (Human)) (UniProt P38570); assay: blocking of E-cadherin binding to αEβ7; assay not described
UniProt P38570, sequence (P38570 19-1179 limits assumed, form in doubt, chain 1 of 2): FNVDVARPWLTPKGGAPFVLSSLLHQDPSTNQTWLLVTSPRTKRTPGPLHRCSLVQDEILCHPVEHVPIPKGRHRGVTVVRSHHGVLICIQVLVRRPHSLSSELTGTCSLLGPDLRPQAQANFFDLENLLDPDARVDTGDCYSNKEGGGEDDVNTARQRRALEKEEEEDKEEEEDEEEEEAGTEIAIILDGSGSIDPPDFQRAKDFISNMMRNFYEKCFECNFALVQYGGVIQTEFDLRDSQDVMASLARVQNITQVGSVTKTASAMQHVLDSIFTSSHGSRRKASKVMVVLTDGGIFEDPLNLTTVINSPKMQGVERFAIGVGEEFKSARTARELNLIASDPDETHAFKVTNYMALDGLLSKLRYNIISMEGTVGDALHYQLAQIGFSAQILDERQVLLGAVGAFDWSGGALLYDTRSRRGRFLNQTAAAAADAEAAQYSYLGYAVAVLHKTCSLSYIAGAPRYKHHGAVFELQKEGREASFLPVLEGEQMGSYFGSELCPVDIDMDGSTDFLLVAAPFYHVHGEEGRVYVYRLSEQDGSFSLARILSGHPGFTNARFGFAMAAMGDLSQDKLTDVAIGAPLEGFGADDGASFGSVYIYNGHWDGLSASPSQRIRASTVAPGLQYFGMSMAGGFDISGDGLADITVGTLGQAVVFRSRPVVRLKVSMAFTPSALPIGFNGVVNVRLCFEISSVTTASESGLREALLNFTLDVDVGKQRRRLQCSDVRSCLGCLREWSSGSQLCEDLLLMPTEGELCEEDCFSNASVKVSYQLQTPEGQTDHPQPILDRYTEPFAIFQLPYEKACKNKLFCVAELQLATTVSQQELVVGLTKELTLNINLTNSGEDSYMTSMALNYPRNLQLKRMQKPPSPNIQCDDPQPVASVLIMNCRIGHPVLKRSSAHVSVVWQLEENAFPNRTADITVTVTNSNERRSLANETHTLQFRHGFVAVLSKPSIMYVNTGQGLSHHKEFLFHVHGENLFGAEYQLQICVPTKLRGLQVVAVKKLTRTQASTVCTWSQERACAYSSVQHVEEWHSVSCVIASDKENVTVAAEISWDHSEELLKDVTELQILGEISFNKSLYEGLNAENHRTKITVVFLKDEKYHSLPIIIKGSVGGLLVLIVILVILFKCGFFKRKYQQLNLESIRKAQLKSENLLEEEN
UniProt P38570, sequence (beta, as listed by the source limits assumed, form in doubt, chain 2 of 2): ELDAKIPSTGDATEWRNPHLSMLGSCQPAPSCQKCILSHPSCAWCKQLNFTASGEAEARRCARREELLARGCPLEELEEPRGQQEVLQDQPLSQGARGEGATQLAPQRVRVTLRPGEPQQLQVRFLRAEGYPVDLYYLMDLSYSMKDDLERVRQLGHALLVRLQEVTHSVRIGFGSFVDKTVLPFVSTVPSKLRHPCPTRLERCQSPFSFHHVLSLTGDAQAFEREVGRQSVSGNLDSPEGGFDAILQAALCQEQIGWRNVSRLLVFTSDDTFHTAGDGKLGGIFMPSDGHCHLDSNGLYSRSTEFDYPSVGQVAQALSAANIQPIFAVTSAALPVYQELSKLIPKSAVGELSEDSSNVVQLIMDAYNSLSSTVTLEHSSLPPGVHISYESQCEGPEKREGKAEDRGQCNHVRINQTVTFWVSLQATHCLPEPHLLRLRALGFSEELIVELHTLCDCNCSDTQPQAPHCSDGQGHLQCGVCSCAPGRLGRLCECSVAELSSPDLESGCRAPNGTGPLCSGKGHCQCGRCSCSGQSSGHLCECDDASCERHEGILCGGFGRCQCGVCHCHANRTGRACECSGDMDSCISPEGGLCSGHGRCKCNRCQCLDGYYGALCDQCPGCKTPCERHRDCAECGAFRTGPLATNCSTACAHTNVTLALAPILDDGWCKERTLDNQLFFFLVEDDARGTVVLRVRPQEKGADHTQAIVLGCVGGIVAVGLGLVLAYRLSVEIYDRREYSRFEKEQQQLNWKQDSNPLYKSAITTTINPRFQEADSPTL

- CD45RA+ β7intermediate T cells in peripheral blood, increase over baseline, four weekly doses of 25 mg/kg, cynomolgus monkeys [1]: 2.5 fold
- CD45RA- β7high T cells in peripheral blood, increase over baseline, four weekly doses of 25 mg/kg, cynomolgus monkeys [1]: 5 fold
- group mean CD45RA- β7high CD4+ lymphocytes in peripheral blood, increase over baseline, 5 mg/kg IV weekly, cynomolgus monkeys [1]: 4 to 5 fold
- group mean CD45RA- β7high CD4+ lymphocytes in peripheral blood, increase over baseline, 15 or 50 mg/kg IV or SC weekly, cynomolgus monkeys [1]: 5 to 6 fold
- IC50 [2]: 0.07 to 0.1 nM
- serum concentration that maintains complete β7-receptor saturation [3]: 1 to 10 µg/mL
- serum level below which available β7 is detected (desaturation) [3]: 10 µg/mL
- IC50 [4]: 5 nM
B1: rhuMAb Beta7, recombinant humanized monoclonal anti-beta7 integrin antibody (antibody, from a related filing, V domains shown)
VH: EVQLVESGGGLVQPGGSLRLSCAASGFFITNNYWGWVRQAPGKGLEWVGYISYSGSTSYNPSLKSRFTISRDTSKNTFYLQMNSLRAEDTAVYYCARTGSSGYFDFWGQGTLVTVSS
VL: DIQMTQSPSSLSASVGDRVTITCRASESVDDLLHWYQQKPGKAPKLLIKYASQSISGVPSRFSGSGSGTDFTLTISSLQPEDFATYYCQQGNSLPNTFGQGTKVEIKR
